From article PMC2920321, “Characterization of ftsZ Mutations that Render Bacillus subtilis Resistant to MinC” (PLoS ONE, 2010)

B1: wild type FtsZ (Bacillus subtilis) [B. subtilis] / itself (parent)
chain: MLEFETNIDGLASIKVIGVGGGGNNAVNRMIENEVQGVEYIAVNTDAQALNLSKAEVKMQIGAKLTRGLGAGANPEVGKKAAEESKEQIEEALKGADMVFVTAGMGGGTGTGAAPVIAQIAKDLGALTVGVVTRPFTFEGRKRQLQAAGGISAMKEAVDTLIVIPNDRILEIVDKNTPMLEAFREADNVLRQGVQGISDLIATPGLINLDFADVKTIMSNKGSALMGIGIATGENRAAEAAKKAISSPLLEAAIDGAQGVLMNITGGTNLSLYEVQEAADIVASASDQDVNMIFGSVINENLKDEIVVTVIATGFIEQEKDVTKPQRPSLNQSIKTHNQSVPKREPKREEPQQQNTVSRHTSQPADDTLDIPTFLRNRNKRG

Variants of: B1
Test: sedimentation assay (ultracentrifugation)
Details: with itself, 10 µM FtsZ, 50 mM Hepes/NaOH, 50 mM KCl, 10 mM MgCl2, pH 7.5, 30°C, 5 min, read off a plot

A response (% FtsZ in pellet) (1 mM GDP (control)) of 28 and a response (% FtsZ in pellet) (1 mM GTP) of 25 were found for chain 1 A285T in this work.

A response (% FtsZ in pellet) (1 mM GDP (control)) of 18 and a response (% FtsZ in pellet) (1 mM GTP) of 29 were found for chain 1 L302P Q353R in this work.

A response (% FtsZ in pellet) (1 mM GDP (control)) of 16 and a response (% FtsZ in pellet) (1 mM GTP) of 51 were found for chain 1 S219L in this work.
